Patent US20110104145A1 (published 2011)
Where no end group is shown, it is not given here.

Experiments:
[1] = target: IgA (monomeric serum IgA, coated on beads or plates) (human, UniProt P01876-1 1-353); test: cell-based or functional assay
[2] = target: CD89 (Fc receptor for IgA) on polymorphonuclear cells (human, UniProt P24071 22-287); test: cell-based or functional assay
Sequence of CD89 (Fc receptor for IgA) on polymorphonuclear cells (P24071 22-287): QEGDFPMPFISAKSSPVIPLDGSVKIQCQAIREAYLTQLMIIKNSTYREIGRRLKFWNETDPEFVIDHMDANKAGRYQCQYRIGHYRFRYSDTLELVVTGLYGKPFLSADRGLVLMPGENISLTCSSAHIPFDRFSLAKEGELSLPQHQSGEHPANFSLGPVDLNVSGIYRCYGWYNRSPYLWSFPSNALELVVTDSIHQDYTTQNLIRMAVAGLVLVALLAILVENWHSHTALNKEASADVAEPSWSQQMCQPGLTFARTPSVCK

Sequence of IgA (monomeric serum IgA, coated on beads or plates) (P01876 other isoform, or with tags, fused parts or gaps): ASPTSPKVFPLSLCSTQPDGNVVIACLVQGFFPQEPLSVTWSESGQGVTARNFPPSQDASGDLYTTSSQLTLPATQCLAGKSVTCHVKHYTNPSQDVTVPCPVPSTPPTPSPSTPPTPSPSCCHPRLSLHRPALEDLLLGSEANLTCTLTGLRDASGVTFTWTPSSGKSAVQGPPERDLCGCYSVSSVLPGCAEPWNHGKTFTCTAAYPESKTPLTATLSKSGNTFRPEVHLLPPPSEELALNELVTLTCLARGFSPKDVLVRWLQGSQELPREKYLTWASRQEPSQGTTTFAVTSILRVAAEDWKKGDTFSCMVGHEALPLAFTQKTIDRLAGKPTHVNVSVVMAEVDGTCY

Binder | percentage blocking (polymorphonuclear cells bound to IgA-coated beads, 2-D migration assay) [1] [%] | percentage blocking (polymorphonuclear cells bound to IgA-coated beads, 2-D migration assay) [2] [%]
REIGRRLKFWNETDP [Peptide Fc alpha 113] | ≤ 19 | –
HEALPLAFTQK-NH2 [peptide IgA CH3] | – | ≤ 18
CSMVGHEALPLAFTQKC-NH2 (cysteine pairing not given here) [peptide PEO-47 mP2#2,3] | – | ≤ 20
